The source of these data is paper PMC3496974 (MicrobiologyOpen, 2012).

Data set [1] deals with the molecule itself. Kind of data set: SEC.
Data set [2] has as its target T1, PanZ(N45A)-His (E. coli, UniProt P37613 1-127, N45A).
T1 sequence: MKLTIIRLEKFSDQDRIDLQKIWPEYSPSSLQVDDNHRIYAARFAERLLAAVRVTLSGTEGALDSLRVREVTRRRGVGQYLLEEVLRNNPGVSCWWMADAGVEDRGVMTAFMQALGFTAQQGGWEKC
Put plainly: SEC. In general terms: In gel filtration, larger molecules generally elute earlier.

B1: PanD, unactivated proenzyme (native, untagged) (enzyme, E. coli, UniProt P0A790 1-126, looked up)
chain: MIRTMLQGKLHRVKVTHADLHYEGSCAIDQDFLDAAGILENEAIDIWNVTNGKRFSTYAIAAERGSRIISVNGAAAHCASVGDIVIIASFVTMPDEEARTWRPNVAYFEGDNEMKRTAKAIPVQVA
As usually defined, the stoichiometry N is a count of units in the complex or per binding partner. On to B1, for which, in data set [1], the “stoichiometry N” value came to 4. The binding result in data set [2] was “binds”.
